Assay: yeast display, Sf9 membrane polyspecificity reagent, FACS + sequencing; frameworks hold sequencing errors
Outline: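 Galactose-induced (36–48 hours) yeast carrying a synthetic nanobody display library were exposed to 10% biotinylated, detergent-solubilized Sf9 membrane reagent at 4 °C for 1 hour. FACS followed streptavidin microbead enrichment, using low and high (top ~1%) gates for expression (anti-HA) and reagent binding (streptavidin). Colony PCR, MiSeq 2 × 250 sequencing and CDR-length filtering followed. Labels for polyreactivity reflect the gate of origin.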

Sequence	polyreactivity (PSR sort gate)
QVQLVESGGGLVQAGGSLRLSCAASGSIFATYAMGWYRQAPGKERELVAAITSSDGSTNYADSVKGRFTISRDNAKNTVYLQMNSLKPEDTAVYYCATDAPDRTDSDSGFDAGYDYWGQGTQVTLSS	low polyreactivity
QVQLVESGGGLVQAGGSLRLSCAASGSIFAVYAMGWYRQAPGKERELVAAISVSGGRTYYADSVKGRFTISRDNAKNTVYLQMNSLKPEDTAVYYCAARSLSYYRSRAAQYGWGYYYWGQGTQVTVSS	high polyreactivity
QVQLVESGGGLVQAGGSLRLSCAASGSIFAVYAMGWYRQAPGKERELVAASSTDYADSVKGRFTISRDYAKNTVYLQMNSLKPEDTAVYYCANVGFGIPGGFYYWGQGTKVTVSS	low polyreactivity
QVQLVESGGGLVQAGGSLRLSCAASGSIFAVYAMGWYRQAPGKERELVATITGIDTGTYYADSVKGRFTISRDNAKNTVYLQMNSLKPEDTAVYYCAAVWRYRHLRFYYWGQGTQVTVSS	high polyreactivity
QVQLVESGGGLVQAGGSLRLSCAASGSIFAVYTMGWYRQAPGKEREVVAAITKSGGRTYYADSVKGRFTISRDNAKNTVYLQMNSLKPEDTAVYYCARRRTIPYTLVDYDSWGQGTQVTVSS	low polyreactivity
QVQLVESGGGLVQAGGSLRLSCAASGSIFAWYAMGWYRPAPGKEWELVAVITRGGSTNYADSLKGRFTISRDNAKNTVYLQMNSLKPEDTAVKYCAAGSYYSWYPFDYWGQGTQVTVSS	low polyreactivity
QVQLVESGGGLVQAGGSLRLSCAASGSIFAWYAMGWYRQAPGKERELVAAISYRGGRTYYADSVKGRFTISRDNAKNTVYLQMNSLKPEDTAVYYCATDANRGYPSYDYWGQGTQVTVSS	high polyreactivity
QVQLVESGGGLVQAGGSLRLSCAASGSIFAYAMGWYRKAPGKEREFVAAISGGSTYYADSVKGRFTISRDNAKNTVYLQMNSLKPEDTAVYYCAADLDDERYYWGQGTQVTVSS	low polyreactivity
QVQLVESGGGLVQAGGSLRLSCAASGSIFAYKAKGWYRQAPGKEREFVAVITRSDDSTYAYSVKGRFTISRDNAKNPFYLQMNSLKAEDTAVYYCARRWSYLRPSLEYDSWGQGTQVTVSS	low polyreactivity
QVQLVESGGGLVQAGGSLRLSCAASGSIFAYNAKGWYRPAPGKEREFVAVITRSDDSTYADSVKWRFTISRDNAKNTVYLQMNSLKPEDTSVYYCAAQPFVIDCGYRGDYWGQATQVTVSS	low polyreactivity
QVQLVESGGGLVQAGGSLRLSCAASGSIFAYNAMGWYRQAPGKDREFVAAISQSGGRTYYAHSVKGRFTISRDNAKNTVYLQMNILKPEDTAVYYCATDGIRLTRHRDYDYWGQGTQVTVSS	low polyreactivity
QVQLVESGGGLVQAGGSLRLSCAASGSIFAYNAMGWYRQAPGKERELVATINWIGGRTYYADSVKGRFTISRDNAKNTVYLQMNSLKPEDTAVYYCAKERWYLGVSNGHVLVDYDHWGQGTQVTVSS	low polyreactivity
QVQLVESGGGLVQAGGSLRLSCAASGSIFAYYAMGWYRQAPGKEREIVAAISKRGGRTYYADSVKGRFTISRDNAKNTVYLQMNSLKPEDTAVYYCATVGVRTNLNRYGYWGQGTQVTVSS	high polyreactivity
QVQLVESGGGLVQAGGSLRLSCAASGSIFAYYAMGWYRQAPGKERELVAAIDSRGGSTYYADSVKGRFTISRDNAKNTVYLQMNSLKPEDTAVYYCAARLRYPRRGQGDNYWGQGTQVTVSS	low polyreactivity
QVQLVESGGGLVQAGGSLRLSCAASGSIFAYYAMGWYRQAPGKERELVAAISSGGGTYYADSVKGRFTISRDNAKNTVYLQMNSLKPEDTAVYYCARRYRAHYQYLYDYWGQGTQVSVSS	low polyreactivity
QVQLVESGGGLVQAGGSLRLSCAASGSIFAYYAMGWYRQAPGKERELVASISSVGTTKYADSVKGRFTISRDNAKNTVYLQMNSLKPEDTAVYYWATDGYSPAAFDYWGQGTQVTVSS	low polyreactivity
QVQLVESGGGLVQAGGSLRLSCAASGSIFAYYAMGWYRQAPGKESELVADITSSGGITYYADSVKGRFTISRDNAKNTVYLQMISLKPEDTAVYYCNADSWAIGGGSYPYDYWGHGTQVTVSS	low polyreactivity
QVQLVESGGGLVQAGGSLRLSCAASGSIFAYYTMGWYRQAAGNERELVAVINASGGGTYYADSVKGRFTISRDNAKNTVYLQMNSLKPEDTAVYYCAATYSPFDFYYWGQGTQVTVSS	low polyreactivity
QVQLVESGGGLVQAGGSLRLSCAASGSIFAYYTMGWYRQAPGKERELVATISSGDITNYADSVKGRFTISRDNAKNTVYLQMNSLKPEDTAVYYCAAAELTSYYRTFIHQDYDYWGQGTQVTVSS	low polyreactivity
QVQLVESGGGLVQAGGSLRLSCAASGSIFAYYTMGWYRQAPGNERELVAALSRSGGSTNYADSVKGRFTISRDNAKNTVYLQMISLKPEDTAVYYCAVRRYSRRLFGYYYWGQGTQVTVSS	high polyreactivity
QVQLVESGGGLVQAGGSLRLSCAASGSIFCRNAMGWYRQAPGKERELVAAITSGGTTNYADSVKGRFTISRDNAKNSVYLQMNSLKPEDTAVYYCATRASYLRRYDHPHSDVDYWGQGTQVTVSS	low polyreactivity
QVQLVESGGGLVQAGGSLRLSCAASGSIFDANAMGCYRQAPGKERELVAAINWTGGSTYYADSVKGRFTISRDNAKNTVYLQMNSLKPEDTAVYYCAAEWWYPYNPDIYYYWGQGIQVTVSS	high polyreactivity

Sequence	polyreactivity (PSR sort gate)
QVQLVESGGGLVQAGGSLRLSCAASGSIFDANAMGWYRQAPGKEREVVAAISYRGGRTYYADSVKGRFTISRDNAKNTVYLQMNSLKPEDTAVYYCNAGISHRSDNGIDGYYWGQGTQVTVSS	high polyreactivity
QVQLVESGGGLVQAGGSLRLSCAASGSIFDAYAMGWYRQAPGKERELVAAISSGGNTNYADSVKGRFTISRDNAKNTVDLQMNSLKPEDTAVYYCAADFTHPDGLPGFDYWGQGTQVTVSS	low polyreactivity
QVQLVESGGGLVQAGGSLRLSCAASGSIFDDYAMGWYRQAPGKERELVAAISSSGTSTYYADSVKGRFTISRDNAKNTVYLQMNSLKPEDTAVYYCAARSAILKSGYLMDYWGQGTQVTVSS	low polyreactivity
QVQLVESGGGLVQAGGSLRLSCAASGSIFDFNALGWYRQAPGKERELVAAITYSGGRTYYADSVKGRFTISRDNGKYTVYLQMNSMKPEDTAVFYCAVNSFSGHGDYWGQGTQVTVSS	low polyreactivity
QVQLVESGGGLVQAGGSLRLSCAASGSIFDGNAMGWYRQAPGKERELVAAISRRGGSTYYADSVKGRFTISRDKAKNTVYLQMNSLKPEDTAVYYCNAYLSYFDGNYWGQGTQVTVSS	high polyreactivity
QVQLVESGGGLVQAGGSLRLSCAASGSIFDINAMGWYRQAPWKERELVAAISLSAGSTYYADSVKGRFTISRDNSKNTVYFQMNSLYPDDAAVFYCNADGWYGYWGQVTQVTVSS	low polyreactivity
QVQLVESGGGLVQAGGSLRLSCAASGSIFDIYAMGWYRPAPGKERELVAAISLSAGSTYYADSVKGRFTISRDNAKNTVYLQMNSLKPEDTAVYYCNADGWYGYWGQGTQVTVSS	low polyreactivity
QVQLVESGGGLVQAGGSLRLSCAASGSIFDIYAMGWYRQAPGKERELVATITWDGVSTYYADSVKGRFTISRDNAKNTVYLQMNSLKPEDTAVYYCNVVVRYPSAYDYWGQGTQVTVSS	high polyreactivity
QVQLVESGGGLVQAGGSLRLSCAASGSIFDIYGMGWYRKAPGKERELVASISGGAGSTNYADSVKGRFTISRDNAKNTVYLQMNSLKPEDTAVYYCAAEVYVPDYFQHKFDVEYEYWGQGTQVTVSS	low polyreactivity
QVQLVESGGGLVQAGGSLRLSCAASGSIFDLNAMGWYRQAPGKERELGAAISSGGGTYYADSVKGRFTISRDNAKNTVYLQMNSLKPEDTAVYYCNRVTSWTYNYWGQGTQVTVSS	high polyreactivity
QVQLVESGGGLVQAGGSLRLSCAASGSIFDLYAMGWYRQAPGKERELVAAINWTGGSTYYADSVKGRFTISRDNAKNTVYLQMNSLKPEDTAVYYCAASYYYGTEHYDYWGQGTQVTVSS	low polyreactivity
QVQLVESGGGLVQAGGSLRLSCAASGSIFDNAMGWYRQAPGKERELVADITNNGGSTYYADSVKGRFTISRDNAKNTVYLQMNSLKPEDTAVYYCAKRRNYWFSFDYWGQGTQVTVSS	low polyreactivity
QVQLVESGGGLVQAGGSLRLSCAASGSIFDNAMGWYRQAPGKERELVASIDQSGGSTYYADSVKGRFTISRDNAKNTVYLQMNSLKPEDTAVYYCAADSFTGYPYEMDYWGQGTQVTVSS	low polyreactivity
QVQLVESGGGLVQAGGSLRLSCAASGSIFDNNAMGWYRQAPGKERELVAAIRRTSTTYYADSVKGRFTISRDNAKNTVYLQMNSLKPEDTAVYYCAATYGSGYWYPRYYYWGQGTQVTVSS	high polyreactivity
QVQLVESGGGLVQAGGSLRLSCAASGSIFDPYAMGWYRQAPGKERELVAAIDYSGGSTYYADSVKGRFTISRDNAKNTVYLQMNSLKPEDTAVSYCAADYFWLYYSEYGYWGQGTQVTVSS	low polyreactivity
QVQLVESGGGLVQAGGSLRLSCAASGSIFDPYAMGWYRQAPGKERELVAAIRWGGGTTYYADSVKGRFTISRDNSKITVSLQMNSLKPEDTAVYYCAASWDWYDYWYDYWGQGTQVTVSS	high polyreactivity
QVQLVESGGGLVQAGGSLRLSCAASGSIFDPYAMGWYRQAPGKERELVAAISGSGGSTYYADSVKGRFTISRDNAKNTVYLQMNSLKPEDTALYFCAAADAWWGRRYKYYHWGQGPQVTVSS	low polyreactivity
QVQLVESGGGLVQAGGSLRLSCAASGSIFDPYAMGWYRQAPGKERELVAAITSDGSTNYADSVKGRFTISRDNAKNTVYLQMNSLKPEDTAVYYCAARYNLGEYDYWGQGTQVTVSS	low polyreactivity
QVQLVESGGGLVQAGGSLRLSCAASGSIFDPYAMGWYRQAPGKERELVAGISFSGGRTYYADSVKGRFTISRDNAKNTVYLQMNSLKPEDTAVYYCNKLLTQGAYPYYYWGQGTQVTVSS	high polyreactivity
QVQLVESGGGLVQAGGSLRLSCAASGSIFDQYAMGWYRQAPGKERELVAGISSNGGTSTYYADSVKGRFTISRDNAKNTVYLQMNSLKAEDTAVYYCAAQSHYVDQYGYWGQGTQVTVSS	low polyreactivity
QVQLVESGGGLVQAGGSLRLSCAASGSIFDRNAMGWYRQAPGKERELVAAINSNAGITYYADSVKGRFTISRDNAKITVYLQMNSLKPEDTAVYYCAADIRVVYREDHWGQGTQVTVSS	low polyreactivity

From the nanobody polyreactivity screen of Harvey et al. (2022)
